# Assay results published in ChEMBL document CHEMBL3525949, “Role of organic anion-transporting polypeptides for cellular mesalazine (5-aminosalicylic acid) uptake” (Drug Metab Dispos, 2011).
# Columns and labels:
# [1] = substrate: Nc1ccc(O)c(C(=O)O)c1; test: Drug uptake in human OATP2B1 expressed HEK293 cells assessed as net uptake; format: ADME, cell-based
# [2] = substrate: Nc1ccc(O)c(C(=O)O)c1; test: Drug uptake in human OATP1B1 expressed HEK293 cells assessed as net uptake; format: ADME, cell-based
Protein,Km [1] [µM],Vmax [1] [µmol/min],Km [2] [µM],Vmax [2] [µmol/min]
Solute carrier organic anion transporter family member 2B1 (Homo sapiens) (protein) MGPRIGPAGEVPQVPDKETKATMGTENTPGGKASPDPQDVRPSVFHNIKLFVLCHSLLQLAQLMISGYLKSSISTVEKRFGLSSQTSGLLASFNEVGNTALIVFVSYFGSRVHRPRMIGYGAILVALAGLLMTLPHFISEPYRYDNTSPEDMPQDFKASLCLPTTSAPASAPSNGNCSSYTETQHLSVVGIMFVAQTLLGVGGVPIQPFGISYIDDFAHNSNSPLYLGILFAVTMMGPGLAFGLGSLMLRLYVDINQMPEGGISLTIKDPRWVGAWWLGFLIAAGAVALAAIPYFFFPKEMPKEKRELQFRRKVLAVTDSPARKGKDSPSKQSPGESTKKQDGLVQIAPNLTVIQFIKVFPRVLLQTLRHPIFLLVVLSQVCLSSMAAGMATFLPKFLERQFSITASYANLLIGCLSFPSVIVGIVVGGVLVKRLHLGPVGCGALCLLGMLLCLFFSLPLFFIGCSSHQIAGITHQTSAHPGLELSPSCMEACSCPLDGFNPVCDPSTRVEYITPCHAGCSSWVVQDALDNSQVFYTNCSCVVEGNPVLAGSCDSTCSHLVVPFLLLVSLGSALACLTHTPSFMLILRGVKKEDKTLAVGIQFMFLRILAWMPSPVIHGSAIDTTCVHWALSCGRRAVCRYYNNDLLRNRFIGLQFFFKTGSVICFALVLAVLRQQDKEARTKESRSSPAVEQQLLVSGPGKKPEDSRV,189,3.72e-05,,
Solute carrier organic anion transporter family member 1B1 (Homo sapiens) (protein) MDQNQHLNKTAEAQPSENKKTRYCNGLKMFLAALSLSFIAKTLGAIIMKSSIIHIERRFEISSSLVGFIDGSFEIGNLLVIVFVSYFGSKLHRPKLIGIGCFIMGIGGVLTALPHFFMGYYRYSKETNINSSENSTSTLSTCLINQILSLNRASPEIVGKGCLKESGSYMWIYVFMGNMLRGIGETPIVPLGLSYIDDFAKEGHSSLYLGILNAIAMIGPIIGFTLGSLFSKMYVDIGYVDLSTIRITPTDSRWVGAWWLNFLVSGLFSIISSIPFFFLPQTPNKPQKERKASLSLHVLETNDEKDQTANLTNQGKNITKNVTGFFQSFKSILTNPLYVMFVLLTLLQVSSYIGAFTYVFKYVEQQYGQPSSKANILLGVITIPIFASGMFLGGYIIKKFKLNTVGIAKFSCFTAVMSLSFYLLYFFILCENKSVAGLTMTYDGNNPVTSHRDVPLSYCNSDCNCDESQWEPVCGNNGITYISPCLAGCKSSSGNKKPIVFYNCSCLEVTGLQNRNYSAHLGECPRDDACTRKFYFFVAIQVLNLFFSALGGTSHVMLIVKIVQPELKSLALGFHSMVIRALGGILAPIYFGALIDTTCIKWSTNNCGTRGSCRTYNSTSFSRVYLGLSSMLRVSSLVLYIILIYAMKKKYQEKDINASENGSVMDEANLESLNKNKHFVPSAGADSETHC,,,55.1,2.83e-05
